Results on one molecule are retold here after paper PMC9679424, “The CARD8 T60 variant associates with NLRP1 and negatively regulates its activation” (Frontiers in Immunology, 2022).

The assay concerns the target T1, NLRP1-FLAG (human, UniProt Q9C000-1 1-1473).
T1 construct: NLRP1, human, UniProt Q9C000-1, full length; The host of the purified protein is told only as a mammalian expression system; also called full-length NLRP1; Flag-tagged NLRP1; source: HEK 293T, transiently transfected, in lysate; also purified using mammalian protein expression system
T1 sequence (looked up): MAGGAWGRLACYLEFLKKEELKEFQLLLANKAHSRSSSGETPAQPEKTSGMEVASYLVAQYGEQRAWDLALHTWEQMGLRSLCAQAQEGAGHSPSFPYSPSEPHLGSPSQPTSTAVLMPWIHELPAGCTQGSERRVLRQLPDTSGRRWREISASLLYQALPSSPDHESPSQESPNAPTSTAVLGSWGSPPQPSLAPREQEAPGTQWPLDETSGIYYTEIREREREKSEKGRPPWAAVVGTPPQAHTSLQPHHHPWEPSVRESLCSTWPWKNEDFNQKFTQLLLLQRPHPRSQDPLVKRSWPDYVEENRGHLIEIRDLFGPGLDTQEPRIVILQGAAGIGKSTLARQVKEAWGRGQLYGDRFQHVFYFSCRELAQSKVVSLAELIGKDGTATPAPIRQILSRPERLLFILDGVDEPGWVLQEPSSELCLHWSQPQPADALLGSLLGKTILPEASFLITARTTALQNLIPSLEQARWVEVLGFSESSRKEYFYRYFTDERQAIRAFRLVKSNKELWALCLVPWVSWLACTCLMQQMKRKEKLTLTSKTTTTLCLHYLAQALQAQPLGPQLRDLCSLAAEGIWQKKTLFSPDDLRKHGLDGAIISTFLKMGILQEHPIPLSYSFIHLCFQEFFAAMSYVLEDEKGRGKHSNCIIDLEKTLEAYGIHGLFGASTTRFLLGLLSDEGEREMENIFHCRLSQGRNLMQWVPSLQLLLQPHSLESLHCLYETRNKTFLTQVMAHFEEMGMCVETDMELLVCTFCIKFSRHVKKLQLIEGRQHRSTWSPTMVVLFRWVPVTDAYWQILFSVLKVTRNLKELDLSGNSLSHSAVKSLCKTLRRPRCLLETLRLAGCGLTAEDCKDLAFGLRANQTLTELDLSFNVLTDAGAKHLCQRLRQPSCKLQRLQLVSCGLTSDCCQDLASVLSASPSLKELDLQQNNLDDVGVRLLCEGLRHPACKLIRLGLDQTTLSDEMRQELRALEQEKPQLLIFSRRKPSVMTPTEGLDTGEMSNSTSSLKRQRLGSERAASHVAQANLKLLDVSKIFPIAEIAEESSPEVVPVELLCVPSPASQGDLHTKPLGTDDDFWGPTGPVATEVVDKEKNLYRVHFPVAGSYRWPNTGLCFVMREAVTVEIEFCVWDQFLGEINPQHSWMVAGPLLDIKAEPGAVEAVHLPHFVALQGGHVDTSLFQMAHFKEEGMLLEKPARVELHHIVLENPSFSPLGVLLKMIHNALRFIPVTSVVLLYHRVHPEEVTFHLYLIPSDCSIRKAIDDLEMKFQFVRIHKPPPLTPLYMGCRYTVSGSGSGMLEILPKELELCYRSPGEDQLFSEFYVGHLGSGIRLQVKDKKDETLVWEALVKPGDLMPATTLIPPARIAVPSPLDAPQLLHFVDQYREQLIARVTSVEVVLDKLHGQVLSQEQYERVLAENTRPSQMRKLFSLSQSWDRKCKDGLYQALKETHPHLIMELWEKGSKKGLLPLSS
The assay can be described thus: co-IP; HEK 293T cells transiently co-transfected, 28 hours; lysate (20 mM Tris-HCl pH 7.5, 100 mM KCl, 5 mM MgCl2, 0.3% NP-40); precipitation by the Strep tag of CARD8-T60-Strep (anti-Strep; Strep-Tactin gel) overnight at 4 °C; immunoblotting. The conditions noted are these: partners not purified. (In general: Immunoblotting shows a protein as a band on a membrane.)

B1: CARD8-T60-Strep (natural protein, human, UniProt Q9Y2G2-5 1-537, looked up)
chain: MEKKECPEKSSSSEEELPRRDSGSSRNIDASKLIRLQGSRKLLVDNSIRELQYTKTGIFFQAEACVTNDTVYRELPCVSETLCDISHFFQEDDETEAEPLLFRAVPECQLSGGDIPSVSEEQESSEGQDSGDICSEENQIVSSYASKVCFEIEEDYKNRQFLGPEGNVDVELIDKSTNRYSVWFPTAGWYLWSATGLGFLVRDEVTVTIAFGSWSQHLALDLQHHEQWLVGGPLFDVTAEPEEAVAEIHLPHFISLQAGEVDVSWFLVAHFKNEGMVLEHPARVEPFYAVLESPSFSLMGILLRIASGTRLSIPITSNTLIYYHPHPEDIKFHLYLVPSDALLTKAIDDEEDRFHGVRLQTSPPMEPLNFGSSYIVSNSANLKVMPKELKLSYRSPGEIQHFSKFYAGQMKEPIQLEITEKRHGTLVWDTEVKPVDLQLVAASAPPPFSGAAFVKENHRQLQARMGDLKGVLDDLQDNEVLTENEKELVEQEKTRQSKNEALLSMVEKKGDLALDVLFRSISERDPYLVSYLRQQNL
notes: CARD8, T60 isoform, human, UniProt Q9Y2G2-5, full length; The host of the purified protein is told only as a mammalian expression system; also called CARD8-Strep; T60 isoform of CARD8; source: HEK 293T, transiently transfected, in lysate; also purified using mammalian protein expression system
For the molecule B1, the binding result is reported as “binds”.
